Data as given in paper PMC5812316 (Biophysics and Physicobiology, 2018).
Substitutions are numbered along the chain they refer to. Names and notes keep the numbering of the source.

B1: Photozipper variant E159K (domain or fragment)
chain: GSISSELTEAQKVERRERNREHAKRSRVRKKFLLESLQQSVNELNHKNNSLKESIREHLGPRGDSLIAQSSPEADTLLTDNPSKANRILEDPDYSLVKALQMAQQNFVITDASLPDNPIVYASRGFLTLTGYSLDQILGRNCRFLQGPETDPRAVDKIRNAITKGVDTSVCLLNYRQDGTTFWNLFFVAGLRDSKGNIVNYVGVQSKVSEDYAKLLVNEQNIEYKGVRTSNMLRRK
B2: Photozipper variant E159R/K164R (domain or fragment)
chain: B1 chain with K47R, K52R
B3: Photozipper variant K164E (domain or fragment)
chain: B1 chain with K47E, K52E

Target: the molecule itself
Assay: SEC

Row | Protein | stoichiometry N
1 | B1 | 2
2 | B2 | 2
3 | B3 | 2
